B1: Telomere length regulation protein TEL2 homolog (Homo sapiens), Q9Y4R8 (parent)
chain: MEPAPSEVRLAVREAIHALSSSEDGGHIFCTLESLKRYLGEMEPPALPREKEEFASAHFSPVLRCLASRLSPAWLELLPHGRLEELWASFFLEGPADQAFLVLMETIEGAAGPSFRLMKMARLLARFLREGRLAVLMEAQCRQQTQPGFILLRETLLGKVVALPDHLGNRLQQENLAEFFPQNYFRLLGEEVVRVLQAVVDSLQGGLDSSVSFVSQVLGKACVHGRQQEILGVLVPRLAALTQGSYLHQRVCWRLVEQVPDRAMEAVLTGLVEAALGPEVLSRLLGNLVVKNKKAQFVMTQKLLFLQSRLTTPMLQSLLGHLAMDSQRRPLLLQVLKELLETWGSSSAIRHTPLPQQRHVSKAVLICLAQLGEPELRDSRDELLASMMAGVKCRLDSSLPPVRRLGMIVAEVVSARIHPEGPPLKFQYEEDELSLELLALASPQPAGDGASEAGTSLVPATAEPPAETPAEIVDGGVPQAQLAGSDSDLDSDDEFVPYDMSGDRELKSSKAPAYVRDCVEALTTSEDIERWEAALRALEGLVYRSPTATREVSVELAKVLLHLEEKTCVVGFAGLRQRALVAVTVTDPAPVADYLTSQFYALNYSLRQRMDILDVLTLAAQELSRPGCLGRTPQPGSPSPNTPCLPEAAVSQPGSAVASDWRVVVEERIRSKTQRLSKGGPRQGPAGSPSRFNSVAGHFFFPLLQRFDRPLVTFDLLGEDQLVLGRLAHTLGALMCLAVNTTVAVAMGKALLEFVWALRFHIDAYVRQGLLSAVSSVLLSLPAARLLEDLMDELLEARSWLADVAEKDPDEDCRTLALRALLLLQRLKNRLLPPASP
partner: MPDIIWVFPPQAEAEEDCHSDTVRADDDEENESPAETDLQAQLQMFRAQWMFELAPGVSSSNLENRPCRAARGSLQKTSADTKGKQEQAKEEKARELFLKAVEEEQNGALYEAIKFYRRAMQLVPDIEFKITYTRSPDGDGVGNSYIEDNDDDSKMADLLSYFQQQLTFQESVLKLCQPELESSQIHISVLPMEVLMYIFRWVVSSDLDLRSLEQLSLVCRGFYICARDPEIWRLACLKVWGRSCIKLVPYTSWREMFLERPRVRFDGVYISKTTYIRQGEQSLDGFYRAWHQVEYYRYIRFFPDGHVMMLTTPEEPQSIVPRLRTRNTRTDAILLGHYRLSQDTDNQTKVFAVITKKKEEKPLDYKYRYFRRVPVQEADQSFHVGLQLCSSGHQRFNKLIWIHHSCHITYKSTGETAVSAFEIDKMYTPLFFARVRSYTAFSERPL
B2: TELO2-interacting protein 1 homolog (Homo sapiens), O43156 (parent)
chain: MAVFDTPEEAFGVLRPVCVQLTKTQTVENVEHLQTRLQAVSDSALQELQQYILFPLRFTLKTPGPKRERLIQSVVECLTFVLSSTCVKEQELLQELFSELSACLYSPSSQKPAAVSEELKLAVIQGLSTLMHSAYGDIILTFYEPSILPRLGFAVSLLLGLAEQEKSKQIKIAALKCLQVLLLQCDCQDHPRSLDELEQKQLGDLFASFLPGISTALTRLITGDFKQGHSIVVSSLKIFYKTVSFIMADEQLKRISKVQAKPAVEHRVAELMVYREADWVKKTGDKLTILIKKIIECVSVHPHWKVRLELVELVEDLLLKCSQSLVECAGPLLKALVGLVNDESPEIQAQCNKVLRHFADQKVVVGNKALADILSESLHSLATSLPRLMNSQDDQGKFSTLSLLLGYLKLLGPKINFVLNSVAHLQRLSKALIQVLELDVADIKIVEERRWNSDDLNASPKTSATQPWNRIQRRYFRFFTDERIFMLLRQVCQLLGYYGNLYLLVDHFMELYHQSVVYRKQAAMILNELVTGAAGLEVEDLHEKHIKTNPEELREIVTSILEEYTSQENWYLVTCLETEEMGEELMMEHPGLQAITSGEHTCQVTSFLAFSKPSPTICSMNSNIWQICIQLEGIGQFAYALGKDFCLLLMSALYPVLEKAGDQTLLISQVATSTMMDVCRACGYDSLQHLINQNSDYLVNGISLNLRHLALHPHTPKVLEVMLRNSDANLLPLVADVVQDVLATLDQFYDKRAASFVSVLHALMAALAQWFPDTGNLGHLQEQSLGEEGSHLNQRPAALEKSTTTAEDIEQFLLNYLKEKDVADGNVSDFDNEEEEQSVPPKVDENDTRPDVEPPLPLQIQIAMDVMERCIHLLSDKNLQIRLKVLDVLDLCVVVLQSHKNQLLPLAHQAWPSLVHRLTRDAPLAVLRAFKVLRTLGSKCGDFLRSRFCKDVLPKLAGSLVTQAPISARAGPVYSHTLAFKLQLAVLQGLGPLCERLDLGEGDLNKVADACLIYLSVKQPVKLQEAARSVFLHLMKVDPDSTWFLLNELYCPVQFTPPHPSLHPVQLHGASGQQNPYTTNVLQLLKELQ
partner: B1 partner

In one assay the parent is B1. The note with it: with fbx9_human FBXO9, Q9UK97.
Regarding S485A;S487A, the “effect of a mutation on the interaction” value is given as “decreasing interaction strength”.

In another assay the parent is B2. The note with it: with fbx9_human FBXO9, Q9UK97.
In the case of S828A, the “effect of a mutation on the interaction” value is recorded as “disrupting interaction strength”.

These data come from IntAct's records for PubMed 23263282.
